From patent US5223421A, “Identification of methionine Nα-acetyltransferase” (The General Hospital Corporation, priority 1990, dated 1993)

How the values were obtained:
[1] = target: T1, AAA1 N^α -acetyltransferase (N^α -AT) (Saccharomyces cerevisiae, UniProt P07347+P12945); test: Relative activity of N^α -AT for N^α -acetylation of synthetic peptides; type: biochemical
T1 sequence (P12945 2-854 limits assumed): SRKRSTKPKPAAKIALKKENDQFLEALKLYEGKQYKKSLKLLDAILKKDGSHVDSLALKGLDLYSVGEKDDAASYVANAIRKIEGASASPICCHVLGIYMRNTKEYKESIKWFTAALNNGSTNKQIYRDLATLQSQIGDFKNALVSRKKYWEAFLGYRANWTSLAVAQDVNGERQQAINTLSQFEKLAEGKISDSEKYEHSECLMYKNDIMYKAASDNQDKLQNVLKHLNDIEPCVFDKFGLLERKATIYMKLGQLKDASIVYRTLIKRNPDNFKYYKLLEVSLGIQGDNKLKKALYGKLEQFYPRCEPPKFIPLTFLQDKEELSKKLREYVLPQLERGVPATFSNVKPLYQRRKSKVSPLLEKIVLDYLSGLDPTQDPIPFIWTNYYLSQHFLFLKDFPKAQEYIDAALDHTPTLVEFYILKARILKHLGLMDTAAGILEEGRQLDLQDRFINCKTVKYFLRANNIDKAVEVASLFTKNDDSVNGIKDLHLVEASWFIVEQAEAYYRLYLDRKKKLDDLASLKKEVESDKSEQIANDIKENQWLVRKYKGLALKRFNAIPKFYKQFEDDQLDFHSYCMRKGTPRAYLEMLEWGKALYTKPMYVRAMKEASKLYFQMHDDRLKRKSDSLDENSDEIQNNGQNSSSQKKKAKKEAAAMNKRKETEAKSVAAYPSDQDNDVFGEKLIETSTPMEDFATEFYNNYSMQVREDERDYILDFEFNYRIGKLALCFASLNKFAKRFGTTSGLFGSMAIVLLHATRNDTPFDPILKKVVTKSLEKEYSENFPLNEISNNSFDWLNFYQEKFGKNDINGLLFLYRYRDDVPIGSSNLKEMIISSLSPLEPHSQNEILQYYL
T1 sequence (P07347 1-238): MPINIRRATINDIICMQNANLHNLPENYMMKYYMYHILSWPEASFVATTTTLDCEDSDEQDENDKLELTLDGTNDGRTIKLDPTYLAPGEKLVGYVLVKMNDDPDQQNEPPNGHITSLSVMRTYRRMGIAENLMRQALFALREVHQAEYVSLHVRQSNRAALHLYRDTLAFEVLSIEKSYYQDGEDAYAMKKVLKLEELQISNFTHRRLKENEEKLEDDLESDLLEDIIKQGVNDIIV
Experimental: (§1) N^α -acetylt[…] was determined as previously described [Lee et al., J. Biol. Chem. 263:14948-14955 (1988)]. Aliquots of the lysate or chromatographic fractions were added to 1.5 ml Eppendorf tubes containing a reaction mixture of 50 mM HEPES, pH 7.4, 150 mM KCl, 1 mM DTT, 25 μM [^3 H] acetyl coenzyme A (0.5 μCi) and 50 μM synthetic peptide with an adjusted final volume of 100 μl. The assay mixture was incubated at 30° C. for 30 min. The reaction was stopped by adding 17 μl of 0.5M acetic acid and chilled in an ice bath. The reaction samples were filtered through SP membrane discs (Cuno) (previously pre-swollen in 0.5M acetic acid), and then washed three times with 1 ml of 0.5M acetic acid on a Millipore 1225 sampling manifold. The partially dried membranes were placed in scintillation cocktail and counted with a Beckman LS 3801 scintillation counter. One unit of activity was defined as the amount of enzyme able to transfer 1 pmol of [^3 H] acetyl group from [^3 H] acetyl coenzyme A to synthetic peptide per min under standard enzyme assay conditions defined above.
(§2) In order to compare the relative specificity and activity of the methionine N^α -acetylt[…] (M-N^α -AT) of the present invention with the specificity and activity of the AAA1 N^α -acetyltransferase (N^α -AT) of Lee, F.-J. S., et al., J. Bacteriol. 171, (1989), U.S. Patent Application of John A. Smith, and Fang-Jen S. Lee, filed Oct. 25, 1989, entitled "ISOLATION OF STRAINS OF SAC[…] ALTERED N^α -ACETYLT[…]" (which references have been incorporated herein by reference) synthetic peptides were prepared. These peptides were assessed for their ability to serve as substrates for the two enzymes. In Table 6, the effect of the amino terminal amino acid on activity is investigated; in Table 7, the effect of the penultimate amino terminal amino acid on activity is investigated.

[2] = tested on: methionine N^α -acetyltransferase (M-N^α -AT); test: Relative activity of M-N^α -AT for N^α -acetylation of synthetic peptides; type: biochemical, Saccharomyces cerevisiae; design: tested at 50 µM; conditions: Table 7, influence of the penultimate amino terminal residue
Experimental: as §1, §2

[3] = Table 6, influence of the amino terminal residue
[4] = Table 7, influence of the penultimate amino terminal residue

## SIPETQKGVIFYESHGKLEYKDIP (SIPETQKGVIFYESHGKLEYKDIP) [Alcohol dehydrogenase (1-24) (Yeast)]
[1]; [3]
  Activity (%) (mean activity ± S.D.) N^a -AT: 102 ± 5%
[1]; [4]
  Activity (%) (mean activity ± S.D.) N^a -AT: 102 ± 5%
[2]
  Activity (%) (mean activity ± S.D.) M-N^a -AT: 0%

## SYSMEHFRWGKPVGKKRRPVKVYP
[1]; [3]
  Activity (%) (mean activity ± S.D.) N^a -AT: 100 ± 5%
[1]; [4]
  Activity (%) (mean activity ± S.D.) N^a -AT: 100 ± 5%
[2]
  Activity (%) (mean activity ± S.D.) M-N^a -AT: 0%
